In patent publication US20220267412A1 (SERPLUS TECHNOLOGY, published 2022):
Residue numbers refer to the chain shown, from its start. Names and notes keep the numbering of the source.

T1: human neutrophil elastase (human, UniProt P08246 30-247, limits assumed)
T1 sequence (looked up): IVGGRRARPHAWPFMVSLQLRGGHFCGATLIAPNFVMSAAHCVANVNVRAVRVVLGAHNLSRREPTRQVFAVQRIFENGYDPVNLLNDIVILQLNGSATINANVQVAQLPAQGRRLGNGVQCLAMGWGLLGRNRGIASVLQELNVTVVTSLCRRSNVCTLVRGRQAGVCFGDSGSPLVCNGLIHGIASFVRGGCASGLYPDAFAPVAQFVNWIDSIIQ

T2: neutrophil proteinase 3 (UniProt P24158 28-248, limits assumed)
T2 sequence (looked up): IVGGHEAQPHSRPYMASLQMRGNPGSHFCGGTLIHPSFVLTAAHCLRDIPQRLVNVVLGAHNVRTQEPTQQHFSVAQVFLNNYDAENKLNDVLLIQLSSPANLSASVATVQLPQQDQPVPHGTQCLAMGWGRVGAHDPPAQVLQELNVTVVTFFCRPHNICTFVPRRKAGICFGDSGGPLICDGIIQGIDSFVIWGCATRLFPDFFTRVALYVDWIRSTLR

B1: recombinant human serpin B1, wild type (rhsB1-cys344), reduced active monomer (other)
chain: MEQLSSANTRFALDLFLALSENNPAGNIFISPFSISSAMAMVFLGTRGNTAAQLSKTFHFNTVEEVHSRFQSLNADINKRGASYILKLANRLYGEKTYNFLPEFLVSTQKTYGADLASVDFQHASEDARKTINQWVKGQTEGKIPELLASGMVDNMTKLVLVNAIYFKGNWKDKFMKEATTNAPFRLNKKDRKTVKMMYQKKKFAYGYIEDLKCRVLELPYQGEELSMVILLPDDIEDESTGLKKIEEQLTLEKLHEWTKPENLDFIEVNVSLPRFKLEESYTLNSDLARLGVQDLFNSSKADLSGMSGARDIFISKIVHKSFVEVNEEGTEAAAATAGIATFCMLMPEENFTADHPFLFFIRHNSSGSILFLGRFSSP
B2: human serpin B1 C344G variant (other)
chain: B1 chain with C344G
B3: peroxynitrite oxidized (inactivated) wild-type rhsB1 (other)
chain: B1 chain
modifications: oxidized by peroxynitrite (Cys-344 per the filing; chemical nature not determined)
B4: rhsB1D, intermolecular disulfide-bonded dimeric form of rhsB1-cys344 (other)
chain: B1 chain
modifications: intermolecular disulfide bond Cys-344:Cys-344 between the two monomers
B5: human serpin B1 C344A variant (other)
chain: B1 chain with C344A
B6: rhsB1M*, post-translationally modified (oxidized) monomeric form of rhsB1-cys344 (other)
chain: B1 chain
modifications: Cys-344 in an irreversibly oxidized state (chemical nature of the modification not determined)
B7: human serpin B1 C344V variant (other)
chain: B1 chain with C344V
B8: human neutrophil cathepsin G (enzyme, UniProt P08311 21-244, looked up)
chain: IIGGRESRPHSRPYMAYLQIQSPAGQSRCGGFLVREDFVLTAAHCWGSNINVTLGAHNIQRRENTQQHITARRAIRHPQYNQRTIQNDIMLLQLSRRVRRNRNVNPVALPRAQEGLRPGTLCTVAGWGRVSMRRGTDTLREVQLRVQRDRQCLRIFGSYDPRRQICVGDRRERKAAFKGDSGGPLLCNNVAHGIVSYGKSSGVPPEVFTRVSSFLPWIRTTMRS
notes: Bought purified enzyme; also called CatG

Legend:
[1] = target: B8; test: cell-based or functional assay
[2] = target: TLCK-treated bovine alpha chymotrypsin (bovine, UniProt P00766 1-13; P00766 16-146; P00766 149-245); test: cell-based or functional assay
[3] = target: porcine pancreatic elastase (porcine, UniProt P00772 27-266); test: cell-based or functional assay
[4] = target: T1, human neutrophil elastase; test: cell-based or functional assay
[5] = target: T2, neutrophil proteinase 3; test: cell-based or functional assay
[6] = target: B6; test: SDS-PAGE of enzyme:serpin complexes, no 2-ME
[7] = target: B4; test: SDS-PAGE of enzyme:serpin complexes, no 2-ME

Sequence of porcine pancreatic elastase (P00772 27-266): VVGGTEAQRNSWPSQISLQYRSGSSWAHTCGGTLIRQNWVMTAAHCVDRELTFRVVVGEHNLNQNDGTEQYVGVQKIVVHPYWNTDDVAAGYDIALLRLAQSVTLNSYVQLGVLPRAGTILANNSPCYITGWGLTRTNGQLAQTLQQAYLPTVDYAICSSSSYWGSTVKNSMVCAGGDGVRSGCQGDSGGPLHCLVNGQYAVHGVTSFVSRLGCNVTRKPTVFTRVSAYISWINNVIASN

In the case of B1, the “SOI with CatG against SOI with BC” value [1] is reported as ~2 fold of the SOI with BC, the “inhibition of CatG, reduced dimer against unreduced dimer” value [1] is reported as ~2 fold against the unreduced dimer and the “inhibition of cathepsin G, monomer against dimer” value [1] is reported as 2 fold more effective than rhsB1D. For the same binder, the “inhibition of chymotrypsin, monomer against dimer” value [2] was 2 fold more effective than rhsB1D, the “stoichiometry of inhibition (SOI), with 2-ME” value [2] was ~0.5 molar ratio inhibitor:enzyme and the “amount of purified protein to fully inhibit PPE (typically 160 nM, 200 uL, +40 mM 2-ME)” value [3] was 1 µg. The “stoichiometry of inhibition (SOI)” value [4] was ~2.1 molar ratio inhibitor:enzyme.

B2 was tested, and the “amount of purified protein to fully inhibit PPE (typically 160 nM, 200 uL, +40 mM 2-ME)” value [3] was 3.5 µg.

With B3 the “loss of PR3 inhibitory activity, 2-fold molar excess of inhibitor” value [5] was ~40 % of inhibitory activity lost.

With B4 the “SOI with CatG against SOI with BC” value [1] was ~2 fold of the SOI with BC and the “stoichiometry of inhibition (SOI), no 2-ME” value [2] was ~1 molar ratio inhibitor:enzyme.

In the case of B5, the “amount of purified protein to fully inhibit PPE (typically 160 nM, 200 uL, +40 mM 2-ME)” value [3] is reported as 1 µg.

For B6, the “stoichiometry of inhibition (SOI), with or without 2-ME” value [2] was ~3 molar ratio inhibitor:enzyme and the “stoichiometry of inhibition (SOI), with 2-ME” value [4] was ~13 molar ratio inhibitor:enzyme.

B7 was tested, and the “amount of purified protein to fully inhibit PPE (typically 160 nM, 200 uL, +40 mM 2-ME)” value [3] was 1.5 µg.

B8: binds [6]; binds [7].
